According to patent US20250250330A1 (REVOPSIS THERAPEUTICS, published 2025):

T1: His-tagged recombinant human ANG-2 (AcroBiosystems, Cat #AN2-H52H4) (human, UniProt O15123 275-496)
T1 construct: also called rhANG-2; rhANG-2-His; not shown: His tag
T1 sequence (looked up): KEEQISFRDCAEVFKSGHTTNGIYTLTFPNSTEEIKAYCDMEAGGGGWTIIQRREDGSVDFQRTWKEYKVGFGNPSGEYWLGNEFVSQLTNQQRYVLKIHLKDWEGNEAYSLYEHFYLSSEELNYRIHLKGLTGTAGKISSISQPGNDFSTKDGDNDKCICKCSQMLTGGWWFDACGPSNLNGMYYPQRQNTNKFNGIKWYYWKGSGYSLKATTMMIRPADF


Experiments:
[1] = target: T2, Recombinant human VEGF165 (Peprotech, Cat #100-20) (human, UniProt P15692-4 27-191); test: ELISA on rhVEGF165; biotinylated anti-VpreB antibody and streptavidin-HRP detection
T2 construct: Bought protein; also called rhVEGF165; rh VEGF165

[2] = target: T1, His-tagged recombinant human ANG-2 …; test: ELISA on rhANG-2; biotinylated anti-VpreB antibody and streptavidin-HRP detection
Protocol: SgG1 was diluted in blocking buffer at a starting concentration of 10 nM. Sab and scSv were diluted in blocking buffer at a starting concentration of 100 nM. They were then 1:3 serial diluted.

T2 sequence (P15692 other isoform, or with tags, fused parts or gaps limits assumed): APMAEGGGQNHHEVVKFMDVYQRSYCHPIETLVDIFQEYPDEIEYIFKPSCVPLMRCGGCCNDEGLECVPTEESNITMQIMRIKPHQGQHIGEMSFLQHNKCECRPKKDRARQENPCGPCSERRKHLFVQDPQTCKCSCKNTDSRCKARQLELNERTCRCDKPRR

EC50 [1]	EC50 [2]	Binder
0.0063 nM	–	RP-014_VEGF-A_Sab (Fab, V domains shown, also called anti-VEGF-A Sab; not shown: CH1 domain) VH: QVQLVQSGAEVKKPGASVKVSCKASGYTFSIYTIHWVRQAPGQGLEWMGGINPYNGNTKYAQKFQGRVTMTRDTSISTAYMELSRLRSDDTAVYYCAKAPAVFWWTGLDYWGQGTLVTVSS VL: QPVLHQPPAMSSALGTTIRLTCTLRNDHDIGVYSVYWYQQRPGHPPRFLLRYFSQSDKSQGPQVPPRFSGSKDVARNRGYLSISELQPEDEAMYYCAMGARSSVTHVFGSGTQLTVLS
–	0.0485 nM	RP-017_ANG-2_Sab (Fab, V domains shown, also called anti-ANG-2 Sab; not shown: CH1 domain) VH: EVQLVESGGGLVKPGGSLRLSCAASGFTFSSYGMHWVRQAPGKGLEWVAGISADSGDKNYADSVKGRFTISRDNAKNSLYLQMNSLRAEDTAVYYCAKEFISWIYTFDYLDYWGQGTLVTVSS VL: QPVLHQPPAMSSALGTTIRLTCTLRNDHDIGVYSVYWYQQRPGHPPRFLLRYFSQSDKSQGPQVPPRFSGSKDVARNRGYLSISELQPEDEAMYYCAMGARSSVTHVFGSGTQLTVLS
